Assays:
Assay type in all cases: biochemical, Streptomyces melanosporofaciens
[1] = substrate: CC(C)=CCC/C(C)=C/CC/C(C)=C/CC/C(C)=C/COP(=O)(O)OP(=O)(O)O; assay: steady-state kinetics, nonlinear fit of initial velocities; conditions: cyclization reaction; Mg2+-dependent
steady-state kinetics [2] = substrate: CC(C)=CCC/C(C)=C/COP(=O)(O)OP(=O)(O)O; assay: steady-state kinetics; conditions: prenylation; saturating indole as co-substrate; Mg2+-dependent
steady-state kinetics [3] = substrate: c1ccc2[nH]ccc2c1; assay: steady-state kinetics; conditions: prenylation acceptor; saturating GPP as co-substrate; Mg2+-dependent

B1: cyclooctat-9-en-7-ol synthase (CotB2) (Streptomyces melanosporofaciens) (protein)
chain: MTTGLSTAGAQDIGRSSVRPYLEECTRRFQEMFDRHVVTRPTKVELTDAELREVIDDCNAAVAPLGKTVSDERWISYVGVVLWSQSPRHIKDMEAFKAVCVLNCVTFVWDDMDPALHDFGLFLPQLRKICEKYYGPEDAEVAYEAARAFVTSDHMFRDSPIKAALCTTSPEQYFRFRVTDIGVDFWMKMSYPIYRHPEFTEHAKTSLAARMTTRGLTIVNDFYSYDREVSLGQITNCFRLCDVSDETAFKEFFQARLDDMIEDIECIKAFDQLTQDVFLDLIYGNFVWTTSNKRYKTAVNDVNSRIQ
**Q.** How did the Km [1] turn out when B1 was run?
**A.** Its Km is 43 ± 6 µM.

**Q.** And the kcat [1]?
**A.** Its kcat is “(6.7 ± 0.3) × 10^−3 s^−1”.

**Q.** And the Km (steady-state kinetics [2])?
**A.** The Km was 390 ± 20 µM.

**Q.** What about the Km (steady-state kinetics [3]) of the same protein?
**A.** The Km was 290 ± 60 µM.

— publication PMC8594881
